The target in assay [1] is T1, NS1I-1 fragment expressed from the HeLa cDNA library plasmid pK5 (activation domain fusion) (human, UniProt P51659 266-736).
T1 sequence: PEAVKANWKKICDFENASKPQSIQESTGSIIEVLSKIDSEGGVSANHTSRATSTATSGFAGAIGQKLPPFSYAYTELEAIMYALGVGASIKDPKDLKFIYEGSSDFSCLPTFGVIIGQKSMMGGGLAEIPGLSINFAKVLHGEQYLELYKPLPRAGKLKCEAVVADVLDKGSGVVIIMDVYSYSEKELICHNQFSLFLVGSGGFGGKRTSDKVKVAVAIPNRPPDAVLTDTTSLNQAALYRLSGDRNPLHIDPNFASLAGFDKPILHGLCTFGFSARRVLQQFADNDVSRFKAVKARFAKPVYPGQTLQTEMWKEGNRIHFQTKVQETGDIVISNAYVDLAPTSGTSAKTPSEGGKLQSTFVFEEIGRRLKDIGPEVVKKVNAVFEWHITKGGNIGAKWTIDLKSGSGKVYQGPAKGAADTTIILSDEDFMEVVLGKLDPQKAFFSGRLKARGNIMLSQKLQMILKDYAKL
The assay can be described thus: yeast interaction trap, lacZ reporter; pRFHM1 as control bait.

Assay [2] has as its target T2, NS1-BP fragment (amino acids 347 to 619) expressed from the HeLa cDNA library plasmid p59-1 (activation … (human, UniProt Q9Y6Y0 347-611)).
T2 sequence: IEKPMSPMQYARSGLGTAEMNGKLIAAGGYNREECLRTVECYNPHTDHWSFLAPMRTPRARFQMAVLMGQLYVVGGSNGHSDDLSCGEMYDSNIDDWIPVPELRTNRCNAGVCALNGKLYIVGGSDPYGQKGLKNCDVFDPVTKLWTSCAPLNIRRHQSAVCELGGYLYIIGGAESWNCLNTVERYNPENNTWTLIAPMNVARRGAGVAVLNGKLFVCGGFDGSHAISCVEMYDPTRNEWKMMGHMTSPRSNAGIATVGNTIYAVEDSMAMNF
The assay can be described thus: yeast interaction trap, lacZ reporter.

For assay [3], the target named is T3, rabies virus M protein (form used not stated; discussion of Example 9, data not shown) (rabies virus, UniProt P16287 1-202).
T3 sequence: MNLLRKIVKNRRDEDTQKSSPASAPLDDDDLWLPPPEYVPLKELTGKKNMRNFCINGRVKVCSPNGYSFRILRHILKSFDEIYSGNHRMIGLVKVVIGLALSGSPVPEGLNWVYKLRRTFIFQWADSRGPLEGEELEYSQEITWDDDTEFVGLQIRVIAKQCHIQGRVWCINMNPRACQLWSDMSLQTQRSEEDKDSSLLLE
Nature of the assay: far-western blot presumably; data not shown.

B1: LexA-bicoid fusion protein (encoded by pRFHM1) (other)
chain: AQPPPDQNFYHHPLPHTHTHPHPHSHPHPHSHPHPHHQHPQLQLPPQFRNPFDLLFDERTGAINYNYIRPYLPNQMPKPEELPDSLVMRRPRRTRTTFTSSQIAELEQHFLQGRYLTAPRLADLSAKLALGTAQVKIWFKNRRRRHKIQSDQHKDQSYE
notes: also called LexA fused to a transcriptionally inert fragment of the Drosophila melanogaster bicoid protein
Consider B1, for which the binding result in assay [1] and in assay [2] was “no binding” in each case.

With TGLPTPWTVRYSKSKKREYFFNPETKHSQWEEPEG (other, domain: WW) [WW domain from ESS 1], the binding result in assay [3] is listed as “no binding”.

These data come from US20030232325A1 (MOUNT SINAI SCHOOL OF MEDICINE OF NEW YORK UNIVERSITY, published 2003).
